From US20230087785A1, “Leucine-Rich Repeat Kinase 2 Allosteric Modulators” (VIB VZW, priority 2020, published 2023)

Legend:
Assay type in all cases: cell-based
[1] = target: T1, mScarlet-LRRK2 (Homo sapiens, UniProt Q5S007, M2397T/R50H); assay: Confocal microscopy of LRRK2 microtubule localization in HEK293 cells; conditions: HEK293 cells co-transfected with mScarlet-LRRK2 and GFP-Nb, treated with 1 μM MLi-2
T1 construct: expressed in transfected cells; host or cells: HEK293
Text: HEK 293 cells were co-transfected with the indicated GFP-Nbs and mScarlet-LRRK2. […] Scale bar 5 μm.
FIG. 6. […] Scale bar 5 μm.
The binding of LRRK2 to microtubules subsequently reduces the kinesin—and dynein-mediated transport along microtubules.
Recent structural information has linked LRRK2 microtubule relocalization to the conformation of the kinase domain, with a closed conformation favoring LRRK2 binding to microtubules. As a consequence, the commonly used ATP-competitive type I LRRK2 inhibitors trigger this effect. In addition, it was shown before that the WD40 domain is indispensable for LRRK2-microtubule association.
A HEK293 cell line was cultured in complete media (high-glucose Dulbecco's modified Eagle's medium, 10% fetal bovine serum and Penicillin-Streptomycin-Glutamine (Gibco)). Cells were seeded on 8-well p-Slide(Ibidi) and transfected at a confluency of 50-70% with GFP-Nb and mScarlet-LRRK2 constructs, using JetPEI reagent (Polyplus transfection). […] Data acquisition was done with a ×100 oil-immersion objective with a Zeiss LSM800 confocal laser scanning microscope. Image analysis of z-scan was done using the Zeiss microscope software ZEN.

[2] = target: T2, LRRK2(G2019S) (Homo sapiens, UniProt Q5S007, G2019S/M2397T/R50H); assay: In cellulo phospho-Rab / LRRK2 autophosphorylation assay in HEK293T cells; parameters: key to Functional Group (see FIG. 2d): Group 1: group 1: Nbs that inhibit both LRRK2 autophosphorylation and Rab10 phosphorylation in cells; Group 2: group 2: Nbs that inhibit only Rab10 phosphorylation; Group 3: group 3: Nbs that activate LRRK2 kinase activity; Group 4: group 4: Nbs that have no consistent/clear effect on LRRK2 kinase activity; conditions: for LRRK2 autophosphorylation at position S1292 / influence on LRRK2 kinase activity compared to the controls / Rab10 phosphorylation at position T72: HEK 293T cells co-expressing LRRK2(G2019S), Rab29 and Nb-GFP; for influence on LRRK2 kinase activity compared to the controls: Western blot; for Functional Group (see FIG. 2d): classification by effect on in cellulo LRRK2(G2019S) kinase activity; for Rab10 phosphorylation at position T72: endogenous Rab10
T2 construct: SF tag (FLAG + Twin-Strep); expressed in transfected cells; host or cells: HEK 293T
T2 sequence (Q5S007 whole entry R50H/G2019S/M2397T): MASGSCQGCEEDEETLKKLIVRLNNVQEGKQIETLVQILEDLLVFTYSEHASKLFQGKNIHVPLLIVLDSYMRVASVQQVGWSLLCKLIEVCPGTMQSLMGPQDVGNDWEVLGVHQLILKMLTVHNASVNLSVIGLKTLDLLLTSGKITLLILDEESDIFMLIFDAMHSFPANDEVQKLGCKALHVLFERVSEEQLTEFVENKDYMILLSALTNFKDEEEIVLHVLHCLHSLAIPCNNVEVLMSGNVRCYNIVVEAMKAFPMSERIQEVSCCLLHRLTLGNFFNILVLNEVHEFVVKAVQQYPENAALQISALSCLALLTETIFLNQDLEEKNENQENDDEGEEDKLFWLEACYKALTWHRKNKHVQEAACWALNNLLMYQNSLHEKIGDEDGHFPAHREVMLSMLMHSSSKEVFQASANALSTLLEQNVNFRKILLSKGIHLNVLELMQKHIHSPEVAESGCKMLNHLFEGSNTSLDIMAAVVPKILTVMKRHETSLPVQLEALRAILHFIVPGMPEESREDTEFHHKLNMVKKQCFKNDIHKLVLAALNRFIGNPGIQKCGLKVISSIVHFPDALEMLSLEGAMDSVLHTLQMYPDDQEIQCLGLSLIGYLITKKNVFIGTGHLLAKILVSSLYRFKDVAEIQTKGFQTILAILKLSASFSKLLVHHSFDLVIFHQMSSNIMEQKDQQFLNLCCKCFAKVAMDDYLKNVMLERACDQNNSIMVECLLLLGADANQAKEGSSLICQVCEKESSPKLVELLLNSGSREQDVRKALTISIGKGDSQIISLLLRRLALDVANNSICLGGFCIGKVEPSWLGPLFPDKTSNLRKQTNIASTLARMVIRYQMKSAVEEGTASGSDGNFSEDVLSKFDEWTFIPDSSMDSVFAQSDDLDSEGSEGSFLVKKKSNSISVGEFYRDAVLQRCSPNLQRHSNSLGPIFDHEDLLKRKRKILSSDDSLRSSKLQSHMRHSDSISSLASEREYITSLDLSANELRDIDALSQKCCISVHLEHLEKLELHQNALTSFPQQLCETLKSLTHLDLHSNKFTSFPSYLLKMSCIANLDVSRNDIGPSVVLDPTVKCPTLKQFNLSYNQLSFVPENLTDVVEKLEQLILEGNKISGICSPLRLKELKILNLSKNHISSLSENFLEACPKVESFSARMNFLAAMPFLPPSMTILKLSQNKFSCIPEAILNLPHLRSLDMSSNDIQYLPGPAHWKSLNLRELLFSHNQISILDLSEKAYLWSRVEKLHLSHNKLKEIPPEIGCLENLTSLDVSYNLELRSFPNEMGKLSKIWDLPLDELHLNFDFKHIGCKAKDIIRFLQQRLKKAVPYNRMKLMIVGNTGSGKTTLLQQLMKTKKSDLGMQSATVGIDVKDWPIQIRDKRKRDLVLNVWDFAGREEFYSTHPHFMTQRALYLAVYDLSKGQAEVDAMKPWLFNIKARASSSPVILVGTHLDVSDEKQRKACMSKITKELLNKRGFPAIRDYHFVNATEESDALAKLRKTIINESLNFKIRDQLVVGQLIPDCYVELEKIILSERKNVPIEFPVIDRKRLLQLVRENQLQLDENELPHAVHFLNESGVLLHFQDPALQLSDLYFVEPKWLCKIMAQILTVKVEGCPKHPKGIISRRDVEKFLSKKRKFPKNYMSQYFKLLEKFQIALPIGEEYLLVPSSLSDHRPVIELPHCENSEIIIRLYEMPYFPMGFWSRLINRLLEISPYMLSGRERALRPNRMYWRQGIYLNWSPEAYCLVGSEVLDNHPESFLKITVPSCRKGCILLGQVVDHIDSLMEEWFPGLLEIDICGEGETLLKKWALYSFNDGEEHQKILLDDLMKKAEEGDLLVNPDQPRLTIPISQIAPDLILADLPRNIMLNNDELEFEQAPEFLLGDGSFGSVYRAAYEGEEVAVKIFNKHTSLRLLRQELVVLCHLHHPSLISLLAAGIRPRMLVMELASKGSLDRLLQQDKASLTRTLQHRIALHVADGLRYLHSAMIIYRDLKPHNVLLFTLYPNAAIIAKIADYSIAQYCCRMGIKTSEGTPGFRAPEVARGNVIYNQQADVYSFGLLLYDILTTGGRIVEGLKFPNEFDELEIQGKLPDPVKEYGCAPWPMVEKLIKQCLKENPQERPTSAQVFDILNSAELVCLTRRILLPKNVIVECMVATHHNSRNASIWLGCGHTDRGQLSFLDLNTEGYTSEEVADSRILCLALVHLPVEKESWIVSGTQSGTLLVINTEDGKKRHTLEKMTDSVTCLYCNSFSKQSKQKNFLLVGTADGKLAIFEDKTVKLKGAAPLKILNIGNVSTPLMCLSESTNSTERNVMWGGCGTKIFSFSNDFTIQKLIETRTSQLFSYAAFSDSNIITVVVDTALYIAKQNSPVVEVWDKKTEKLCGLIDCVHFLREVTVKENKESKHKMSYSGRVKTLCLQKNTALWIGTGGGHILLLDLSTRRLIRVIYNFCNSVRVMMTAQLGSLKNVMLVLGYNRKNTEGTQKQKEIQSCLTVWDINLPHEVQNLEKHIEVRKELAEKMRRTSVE
Experimental: (FIGS. 2A-2C) LRRK2(G2019S) and its effector Rab29 were overexpressed together with GFP-fused Nbs (“Fluobody”) in HEK293T cells. A negative control, where no Nb is overexpressed (“No Nb”) is also included. […] In rows labeled “pLRRK2”, LRRK2 pS1292 levels are determined by Western Blot using a site-specific anti-pLRRK2(pS1292) antibody (Abcam, ab203181) (shown at different times of development). In the rows labeled “pRAB10”, endogenous pT72-Rab10 levels are determined by Western Blot using the MJFF/Abcam antibody MJF-R21 (Abcam, ab230261) (shown at different times of development). The three lower rows contain controls of LRRK2 (rat anti-LRRK2, 24D8), Fluobody (rat anti-GFP) and Rab10 (rabbit anti-Rab10) expression levels. (FIG. 2D) Based on the results of panels (FIGS. 2A-2C) the Nbs can be divided into 4 functional groups, with group 1: Nbs that inhibit both LRRK2 autophosphorylation and Rab10 phosphorylation in cells; group 2: Nbs that inhibit only Rab10 phosphorylation; group 3: Nbs that activate LRRK2 kinase activity; group 4: Nbs that have no consistent/clear effect on LRRK2 kinase activity.
To assess the influence of the Nbs on LRRK2 kinase activity we monitored two physiologically and disease relevant activities of LRRK2: phosphorylation of the endogenous substrate Rab10 at position T72 and LRRK2 autophosphorylation at position S1292 [25-30]. […] In our cellular assay we thus co-expressed LRRK2(G2019S), Rab29 and the different Nb-GFP fusions in HEK 293T cells (FIG. 2a-c).
HEK 293T cells were cultured in DMEM (supplemented with 10% Fetal Bovine Serum, […] L-Glutamine and 0.5% Pen/Strep). For the assay, the cells were seeded onto six-well plates and transfected at a confluency of 50-70% with the individual Nb-GFP expression constructs, SF-tagged LRRK2(G2019S) and FLAG-HA Rab29 using a self-made polyethylenimine (PEI)-based transfection reagent. After 48 hrs cells were lysed in lysis buffer [30 mM Tris-HCL (pH7.4), 150 mM NaCl, 0.5% Nonident-P40, complete protease inhibitor cocktail, phosphatase inhibitor cocktail II & III (all Sigma)]. Lysates were cleared by centrifugation at 10,000×g and adjusted to a protein concentration of 1 μg/μl in 1× Laemmli Buffer. Samples were subsequently subjected to SDS PAGE and Western Blot analysis to determine LRRK2 pS1292 and Rab10 T72 phosphorylation levels, as described below. Total LRRK2 and Rab10 levels were determined as a reference.
For western blot analysis, protein samples were separated by SDS-PAGE using NuPAGE 10% Bis-Tris gels (Invitrogen) and transferred onto PVDF membranes (Thermo Fisher). To allow simultaneous probing for LRRK2 on the one hand and Rab and the Nb-GFP fusions on the other hand, membranes were cut horizontally at the 140 kDa MW marker band. After blocking non-specific binding sites with 5% non-fat dry milk in TBST (1 h, RT) (25 mM Tris, pH 7.4, 150 mM NaCl, 0.1% Tween-20), membranes were incubated overnight at 4° C. with primary antibodies at dilutions specified below. Phospho-specific antibodies were diluted in TBST/5% BSA (Roth GmbH). Non-phospho-specific antibodies were diluted in TBST/5% non-fat dry milk powder (BioRad). Phospho-Rab10 levels were determined by the site-specific rabbit monoclonal antibody anti-pRAB10([…]) (Abcam, ab230261) and LRRK2 autophosphorylation was determined by the site-specific rabbit monoclonal antibody anti-pLRRK2(pS1292) (Abcam, ab203181), both at a dilution of 1:2,000. Total LRRK2 levels were determined by the in-house rat monoclonal antibody anti-pan-LRRK2 (clone 24D8; 1:10,000). Total Rab10 levels were determined by the rabbit monoclonal antibody anti-RAB10/ERP13424 (Abcam, ab181367) at a dilution of 1:5,000. Nb-GFP fusion proteins were detected using the rat monoclonal antibody anti-GFP (clone 3H9, ChromoTec) at a dilution of 1:2,000. For detection, goat anti-rat IgG or anti-rabbit IgG HRP-coupled secondary antibodies (Jackson ImmunoResearch) were used at a dilution of 1:15,000 in TBST/5% non-fat dry milk powder. […]

[3] = target: T3, endogenous LRRK2 (Mus musculus, UniProt Q5S006); assay: Colocalization of GFP-Nbs with endogenous LRRK2 on zymosan-containing phagosomes in RAW264.7 cells; conditions: RAW264.7 cells transfected with GFP-Nbs, zymosan 30 mins, fixed cells
T3 construct: endogenous in cells; host or cells: RAW264.7
T3 sequence (Q5S006 whole entry): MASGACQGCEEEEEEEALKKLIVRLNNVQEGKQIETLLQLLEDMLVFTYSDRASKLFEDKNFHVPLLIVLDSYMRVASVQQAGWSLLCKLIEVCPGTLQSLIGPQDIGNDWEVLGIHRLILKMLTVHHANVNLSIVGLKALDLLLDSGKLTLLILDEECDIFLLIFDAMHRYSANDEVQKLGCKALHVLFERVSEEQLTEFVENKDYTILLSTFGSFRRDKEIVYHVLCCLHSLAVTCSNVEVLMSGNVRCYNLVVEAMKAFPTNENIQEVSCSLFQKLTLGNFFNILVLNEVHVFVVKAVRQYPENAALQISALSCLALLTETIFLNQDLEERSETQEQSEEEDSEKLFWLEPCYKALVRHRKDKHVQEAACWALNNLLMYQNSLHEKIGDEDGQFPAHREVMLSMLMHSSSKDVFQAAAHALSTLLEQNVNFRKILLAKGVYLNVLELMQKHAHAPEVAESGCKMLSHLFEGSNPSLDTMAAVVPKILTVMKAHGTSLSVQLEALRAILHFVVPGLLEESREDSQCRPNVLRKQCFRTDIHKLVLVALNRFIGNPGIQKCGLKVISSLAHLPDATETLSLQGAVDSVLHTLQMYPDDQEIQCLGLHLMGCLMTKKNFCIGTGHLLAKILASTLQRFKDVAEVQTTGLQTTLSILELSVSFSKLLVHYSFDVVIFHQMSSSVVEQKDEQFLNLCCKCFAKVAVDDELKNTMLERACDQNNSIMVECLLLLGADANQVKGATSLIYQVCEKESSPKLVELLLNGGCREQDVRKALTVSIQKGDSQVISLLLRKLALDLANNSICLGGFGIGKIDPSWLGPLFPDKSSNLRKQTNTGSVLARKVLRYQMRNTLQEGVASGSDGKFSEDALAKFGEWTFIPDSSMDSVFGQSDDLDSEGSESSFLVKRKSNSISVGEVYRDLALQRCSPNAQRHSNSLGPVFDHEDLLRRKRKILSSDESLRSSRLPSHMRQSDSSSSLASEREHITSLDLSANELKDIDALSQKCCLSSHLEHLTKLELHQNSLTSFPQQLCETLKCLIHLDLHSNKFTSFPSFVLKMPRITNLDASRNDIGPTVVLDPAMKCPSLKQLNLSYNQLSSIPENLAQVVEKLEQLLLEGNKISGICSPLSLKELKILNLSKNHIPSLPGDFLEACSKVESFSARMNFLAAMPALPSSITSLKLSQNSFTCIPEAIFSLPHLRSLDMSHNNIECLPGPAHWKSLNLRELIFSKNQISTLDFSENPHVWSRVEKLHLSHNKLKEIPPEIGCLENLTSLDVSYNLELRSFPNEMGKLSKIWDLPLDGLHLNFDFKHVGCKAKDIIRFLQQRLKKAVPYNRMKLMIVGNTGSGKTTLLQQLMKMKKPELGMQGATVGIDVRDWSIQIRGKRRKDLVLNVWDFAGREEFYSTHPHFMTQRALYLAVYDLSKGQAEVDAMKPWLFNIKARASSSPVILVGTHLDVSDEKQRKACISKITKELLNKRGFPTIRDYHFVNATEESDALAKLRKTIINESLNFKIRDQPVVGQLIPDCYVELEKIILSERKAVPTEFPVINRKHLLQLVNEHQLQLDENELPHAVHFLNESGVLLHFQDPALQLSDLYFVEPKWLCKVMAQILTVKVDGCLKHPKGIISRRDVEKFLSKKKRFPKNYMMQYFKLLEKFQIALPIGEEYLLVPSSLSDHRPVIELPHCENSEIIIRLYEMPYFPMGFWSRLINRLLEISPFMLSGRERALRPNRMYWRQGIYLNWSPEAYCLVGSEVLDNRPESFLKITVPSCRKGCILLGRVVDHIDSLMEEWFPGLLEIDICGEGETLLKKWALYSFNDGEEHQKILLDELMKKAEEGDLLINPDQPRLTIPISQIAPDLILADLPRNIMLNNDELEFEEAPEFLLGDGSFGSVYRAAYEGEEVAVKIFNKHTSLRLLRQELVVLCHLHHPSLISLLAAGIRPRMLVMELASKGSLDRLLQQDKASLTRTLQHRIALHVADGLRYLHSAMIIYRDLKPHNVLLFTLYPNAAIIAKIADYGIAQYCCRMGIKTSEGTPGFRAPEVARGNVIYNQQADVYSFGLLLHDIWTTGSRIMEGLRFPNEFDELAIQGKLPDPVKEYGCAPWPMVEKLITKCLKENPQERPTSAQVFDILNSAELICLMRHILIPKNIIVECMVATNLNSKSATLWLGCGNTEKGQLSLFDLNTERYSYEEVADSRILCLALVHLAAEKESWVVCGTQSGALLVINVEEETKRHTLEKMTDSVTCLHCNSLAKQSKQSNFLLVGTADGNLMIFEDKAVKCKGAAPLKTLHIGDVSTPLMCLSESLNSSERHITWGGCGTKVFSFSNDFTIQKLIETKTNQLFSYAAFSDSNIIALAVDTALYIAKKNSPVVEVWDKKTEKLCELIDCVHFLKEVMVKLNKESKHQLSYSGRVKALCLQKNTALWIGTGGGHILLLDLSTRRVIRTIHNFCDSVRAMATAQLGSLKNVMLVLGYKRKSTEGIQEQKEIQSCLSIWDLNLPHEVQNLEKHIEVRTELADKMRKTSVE
Experimental: RAW264.7 cells were transfected with GFP-fused Nbs and treated with Zymosan for 30 mins. Recruitment of LRRK2 and Nbs to the phagosomes was analyzed by immunofluorescence. FIG. 16A, images for Nb38, Nb22, Nb23, Nb40, No Nb, or Irrelevant (IRR) Nb treatments; FIG. 16B, images for Nb36, Nb42, Nb17, Nb39, Nb1, and Nb6 treatments. Scale bar=10 μm.
To test whether Nbs can trace and visualize endogenous LRRK2 in fixed cells, we generated green fluorescent protein (GFP)-Nb fusions (fluobodies) as described before. Recently, it was shown that LRRK2 is recruited to phagosomes upon induction of phagocytosis in immune cells. Therefore, RAW264.7 cells were transfected with these fluobodies and treated with killed yeast bioparticles “zymosan” to induce phagocytosis.
RAW264.7 cells (ATCC® SC-6003™) were transfected with peGFP-Nb constructs using JetOPTIMUS (Polyplus transfection) for 24 hrs and then stimulated with Zymosan particles (Sigma Aldrich) for 30 mins ([…]). Immunostaining for LRRK2 was performed as reported before. Briefly, cells fixed with 4% (w/v) paraformaldehyde for 30 min, followed by treatment with 100% EtOH at −20° C. Sampled were permeabilized with PBS/0.5% Triton X-100 and blocked with 3% BSA. Primary antibodies (rabbit anti-LRRK2, c41-2, Abcam and mouse anti-GFP, G6539, Sigma Aldrich) were diluted in PBS containing 3% BSA and 0.5% Triton X-100 and incubated overnight at 4° C. After three 5-min washes with PBS, secondary fluorescently labeled antibodies (anti-rabbit-Alexa fluor 568 and anti-mouse-Alexa fluor 488, Invitrogen) were added in a similar manner to primary antibodies and incubated for 1 hour at room temperature. Cells were washed twice with 1×PBS and mounted with Fluroshield antifade reagent with DAPI (SigmaAldrich). Images were acquired on Zeiss LSM800 confocal laser scanning microscope. Image analysis of z-scan was done using the Zeiss microscope software ZEN.

T1 sequence (Q5S007 whole entry R50H/M2397T): as the sequence (Q5S007 whole entry R50H/G2019S/M2397T) above, with S2019G counted along it

effect on MLi-2-induced recruitment of LRRK2 to microtubules [1] | Functional Group (see FIG. 2d) [2] | Rab10 phosphorylation at position T72 [2] | Molecule | LRRK2 autophosphorylation at position S1292 [2] | influence on LRRK2 kinase activity compared to the controls [2] | colocalization with endogenous LRRK2 on phagosomes [3]
rescuing effect is most prominent | Group 2 | inhibit Rab10 phosphorylation | Nb17: LRRK2-specific Nanobody, SEQ ID NO: 5 (protein, Nanobody CA13606) VHH: MAQVQLVESGGGLVQPGGSLRLSCAASGSNIGYMAWYRQAPGSQRELVARIASGGSANYADSVKGRFTISRDNVKNTVYLHMNSLKPVDTAVYYCHADAWYNSRWSDYWGQGTQVTVSS | inhibiting S1292 phosphorylation at a lesser extent | strongly decreased LRRK2 autophosphorylation and/or Rab10 phosphorylation | LRRK2 recruitment to phagosomes was slightly detectable
rescuing effect is most prominent | Group 2 | inhibit Rab10 phosphorylation | Nb40: LRRK2-specific Nanobody, SEQ ID NO: 4 (protein, Nanobody CA14135) VHH: MAQVQLVESGGGLVQPGGSLRLSCVASGTIYAINRMGWYRQAPGKQRELVALITLGGGTNYGDSVKGRFTISRDNAKNTGYLQMNSLKPEDTAVYYCKVESSGYTDVFWGQGTQVTVSS | inhibiting S1292 phosphorylation at a lesser extent | strongly decreased LRRK2 autophosphorylation and/or Rab10 phosphorylation | clearly colocalized with LRRK2 on zymosan-containing phagosomes
